In the assay the target is FANCD2 (from His6-3C-FANCD2, His6-tag cleaved by 3C protease) (human, UniProt Q9BXW9 1-1451).

This note sets out measurements from PMC7332966 (2020).

Sequence of FANCD2 (from His6-3C-FANCD2, His6-tag cleaved by 3C protease) (Q9BXW9 whole entry): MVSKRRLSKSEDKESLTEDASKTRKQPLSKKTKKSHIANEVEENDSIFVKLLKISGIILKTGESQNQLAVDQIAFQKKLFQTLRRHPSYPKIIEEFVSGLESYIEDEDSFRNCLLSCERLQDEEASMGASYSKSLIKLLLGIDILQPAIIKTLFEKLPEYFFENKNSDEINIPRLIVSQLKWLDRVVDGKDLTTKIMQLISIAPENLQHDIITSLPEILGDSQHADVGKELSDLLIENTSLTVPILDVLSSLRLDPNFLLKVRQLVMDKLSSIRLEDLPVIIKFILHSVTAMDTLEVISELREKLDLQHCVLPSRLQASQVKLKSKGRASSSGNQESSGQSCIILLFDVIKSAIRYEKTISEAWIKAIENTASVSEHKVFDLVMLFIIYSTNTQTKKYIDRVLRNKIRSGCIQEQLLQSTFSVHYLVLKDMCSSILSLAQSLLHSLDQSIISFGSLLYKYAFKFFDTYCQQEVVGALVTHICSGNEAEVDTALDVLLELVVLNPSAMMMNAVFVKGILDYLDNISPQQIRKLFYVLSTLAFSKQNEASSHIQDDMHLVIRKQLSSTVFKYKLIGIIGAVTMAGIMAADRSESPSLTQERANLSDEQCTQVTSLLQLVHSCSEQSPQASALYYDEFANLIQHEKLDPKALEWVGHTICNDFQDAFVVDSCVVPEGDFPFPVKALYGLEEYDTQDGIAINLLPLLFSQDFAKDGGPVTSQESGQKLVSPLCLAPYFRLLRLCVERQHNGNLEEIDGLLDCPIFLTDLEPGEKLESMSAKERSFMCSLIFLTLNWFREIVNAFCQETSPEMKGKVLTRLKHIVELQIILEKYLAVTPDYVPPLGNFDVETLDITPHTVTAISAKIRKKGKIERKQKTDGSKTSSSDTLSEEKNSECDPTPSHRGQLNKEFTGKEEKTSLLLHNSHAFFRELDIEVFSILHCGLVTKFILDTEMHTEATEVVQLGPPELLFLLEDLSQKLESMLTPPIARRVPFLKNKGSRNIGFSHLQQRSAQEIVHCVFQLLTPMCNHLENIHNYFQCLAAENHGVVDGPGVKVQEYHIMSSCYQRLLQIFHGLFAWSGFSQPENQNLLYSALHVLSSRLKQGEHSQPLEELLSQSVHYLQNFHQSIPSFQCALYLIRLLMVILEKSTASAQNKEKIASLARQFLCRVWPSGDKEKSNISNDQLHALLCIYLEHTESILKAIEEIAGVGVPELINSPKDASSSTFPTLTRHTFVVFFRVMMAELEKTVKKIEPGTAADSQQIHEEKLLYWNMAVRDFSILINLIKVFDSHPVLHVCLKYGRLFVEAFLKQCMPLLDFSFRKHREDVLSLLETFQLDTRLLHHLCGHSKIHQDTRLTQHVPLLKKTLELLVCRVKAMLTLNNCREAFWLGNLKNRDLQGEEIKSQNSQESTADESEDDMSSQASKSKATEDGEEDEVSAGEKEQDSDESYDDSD

B1: His6-FANCI (wild type) (natural protein)
chain: MDQKILSLAAEKTADKLQEFLQTLREGDLTNLLQNQAVKGKVAGALLRAIFKGSPCSEEAGTLRRRKIYTCCIQLVESGDLQKEIASEIIGLLMLEAHHFPGPLLVELANEFISAVREGSLVNGKSLELLPIILTALATKKENLAYGKGVLSGEECKKQLINTLCSGRWDQQYVIQLTSMFKDVPLTAEEVEFVVEKALSMFSKMNLQEIPPLVYQLLVLSSKGSRKSVLEGIIAFFSALDKQHNEEQSGDELLDVVTVPSGELRHVEGTIILHIVFAIKLDYELGRELVKHLKVGQQGDSNNNLSPFSIALLLSVTRIQRFQDQVLDLLKTSVVKSFKDLQLLQGSKFLQNLVPHRSYVSTMILEVVKNSVHSWDHVTQGLVELGFILMDSYGPKKVLDGKTIETSPSLSRMPNQHACKLGANILLETFKIHEMIRQEILEQVLNRVVTRASSPISHFLDLLSNIVMYAPLVLQSCSSKVTEAFDYLSFLPLQTVQRLLKAVQPLLKVSMSMRDCLILVLRKAMFANQLDARKSAVAGFLLLLKNFKVLGSLSSSQCSQSLSVSQVHVDVHSHYNSVANETFCLEIMDSLRRCLSQQADVRLMLYEGFYDVLRRNSQLANSVMQTLLSQLKQFYEPKPDLLPPLKLEACILTQGDKISLQEPLDYLLCCIQHCLAWYKNTVIPLQQGEEEEEEEEAFYEDLDDILESITNRMIKSELEDFELDKSADFSQSTSIGIKNNICAFLVMGVCEVLIEYNFSISSFSKNRFEDILSLFMCYKKLSDILNEKAGKAKTKMANKTSDSLLSMKFVSSLLTALFRDSIQSHQESLSVLRSSNEFMRYAVNVALQKVQQLKETGHVSGPDGQNPEKIFQNLCDITRVLLWRYTSIPTSVEESGKKEKGKSISLLCLEGLQKIFSAVQQFYQPKIQQFLRALDVTDKEGEEREDADVSVTQRTAFQIRQFQRSLLNLLSSQEEDFNSKEALLLVTVLTSLSKLLEPSSPQFVQMLSWTSKICKENSREDALFCKSLMNLLFSLHVSYKSPVILLRDLSQDIHGHLGDIDQDVEVEKTNHFAIVNLRTAAPTVCLLVLSQAEKVLEEVDWLITKLKGQVSQETLSEEASSQATLPNQPVEKAIIMQLGTLLTFFHELVQTALPSGSCVDTLLKDLCKMYTTLTALVRYYLQVCQSSGGIPKNMEKLVKLSGSHLTPLCYSFISYVQNKSKSLNYTGEKKEKPAAVATAMARVLRETKPIPNLIFAIEQYEKFLIHLSKKSKVNLMQHMKLSTSRDFKIKGNILDMVLREDGEDENEEGTASEHGGQNKEPAKKKRKK
modifications: RED-tris-NTA dye (NanoTemper) on the His6 tag
In general, Kd refers to the concentration at which binding is half-saturated. As for B1, the equilibrium dissociation constant (Kd) stood at 11 nM.
